# Assay results published in US20220401537A1.
# Target: recombinant human ROR1 ectodomain containing a C-terminal Avi tag, biotinylated (human) (UniProt Q01973)
# Assay: cell-based or functional assay
# Sequence of UniProt Q01973 (Q01973 30-406): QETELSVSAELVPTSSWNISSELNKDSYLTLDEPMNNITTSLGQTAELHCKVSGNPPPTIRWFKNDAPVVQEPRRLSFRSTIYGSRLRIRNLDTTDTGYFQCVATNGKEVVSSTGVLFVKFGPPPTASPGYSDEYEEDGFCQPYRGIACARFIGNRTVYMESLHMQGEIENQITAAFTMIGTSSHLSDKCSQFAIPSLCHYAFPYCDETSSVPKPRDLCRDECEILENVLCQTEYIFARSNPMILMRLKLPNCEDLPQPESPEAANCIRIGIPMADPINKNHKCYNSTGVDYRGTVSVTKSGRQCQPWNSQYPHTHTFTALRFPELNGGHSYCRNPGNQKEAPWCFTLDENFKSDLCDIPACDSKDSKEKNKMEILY
substance,measurement,value
ROR1-specific 4-1BB/CD3ζ CAR backbone containing a StrepTag II (STII) sequence and two G4S linkers inserted between the R12 scFv and IgG4 hinge (from UniProt P10747 153-179; Q07011 214-255; P20963 52-163),"fraction of CAR T cells activated (Ca2+ mobilization, Fluo-4) during 20 minutes on a ROR1-containing bilayer",< 10%
